Experimental data published in IntAct's records for PubMed 24880343.

Target: pan3_drome PAN3 (UniProt Q95RR8)
Sequence (Q95RR8 whole entry): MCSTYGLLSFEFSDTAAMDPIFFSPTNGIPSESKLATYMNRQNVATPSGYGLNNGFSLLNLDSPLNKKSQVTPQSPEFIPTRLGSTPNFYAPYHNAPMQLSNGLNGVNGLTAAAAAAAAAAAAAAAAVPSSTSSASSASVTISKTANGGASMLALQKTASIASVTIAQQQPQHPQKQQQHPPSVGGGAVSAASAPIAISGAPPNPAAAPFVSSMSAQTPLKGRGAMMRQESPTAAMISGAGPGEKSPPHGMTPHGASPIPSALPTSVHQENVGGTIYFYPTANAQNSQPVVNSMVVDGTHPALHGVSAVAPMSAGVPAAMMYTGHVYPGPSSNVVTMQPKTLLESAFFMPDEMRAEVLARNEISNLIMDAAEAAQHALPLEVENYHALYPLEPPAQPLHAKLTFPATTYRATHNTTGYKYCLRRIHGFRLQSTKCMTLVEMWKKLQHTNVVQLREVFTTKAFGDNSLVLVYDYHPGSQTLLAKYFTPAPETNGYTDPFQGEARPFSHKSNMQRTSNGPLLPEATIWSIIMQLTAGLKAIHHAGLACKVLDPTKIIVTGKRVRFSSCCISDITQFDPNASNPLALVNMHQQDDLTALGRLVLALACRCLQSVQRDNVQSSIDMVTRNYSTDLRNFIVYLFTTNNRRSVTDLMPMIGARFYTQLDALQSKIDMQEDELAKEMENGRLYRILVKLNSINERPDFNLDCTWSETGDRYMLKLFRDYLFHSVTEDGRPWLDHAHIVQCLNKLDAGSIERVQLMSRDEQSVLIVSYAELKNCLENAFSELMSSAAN

Chain of PAN2-PAN3 deadenylation complex catalytic subunit PAN2 (Drosophila melanogaster (Fruit fly)), A1Z7K9 T97R;H102G (A1Z7K9 whole entry T97R/H102G, one chain of several): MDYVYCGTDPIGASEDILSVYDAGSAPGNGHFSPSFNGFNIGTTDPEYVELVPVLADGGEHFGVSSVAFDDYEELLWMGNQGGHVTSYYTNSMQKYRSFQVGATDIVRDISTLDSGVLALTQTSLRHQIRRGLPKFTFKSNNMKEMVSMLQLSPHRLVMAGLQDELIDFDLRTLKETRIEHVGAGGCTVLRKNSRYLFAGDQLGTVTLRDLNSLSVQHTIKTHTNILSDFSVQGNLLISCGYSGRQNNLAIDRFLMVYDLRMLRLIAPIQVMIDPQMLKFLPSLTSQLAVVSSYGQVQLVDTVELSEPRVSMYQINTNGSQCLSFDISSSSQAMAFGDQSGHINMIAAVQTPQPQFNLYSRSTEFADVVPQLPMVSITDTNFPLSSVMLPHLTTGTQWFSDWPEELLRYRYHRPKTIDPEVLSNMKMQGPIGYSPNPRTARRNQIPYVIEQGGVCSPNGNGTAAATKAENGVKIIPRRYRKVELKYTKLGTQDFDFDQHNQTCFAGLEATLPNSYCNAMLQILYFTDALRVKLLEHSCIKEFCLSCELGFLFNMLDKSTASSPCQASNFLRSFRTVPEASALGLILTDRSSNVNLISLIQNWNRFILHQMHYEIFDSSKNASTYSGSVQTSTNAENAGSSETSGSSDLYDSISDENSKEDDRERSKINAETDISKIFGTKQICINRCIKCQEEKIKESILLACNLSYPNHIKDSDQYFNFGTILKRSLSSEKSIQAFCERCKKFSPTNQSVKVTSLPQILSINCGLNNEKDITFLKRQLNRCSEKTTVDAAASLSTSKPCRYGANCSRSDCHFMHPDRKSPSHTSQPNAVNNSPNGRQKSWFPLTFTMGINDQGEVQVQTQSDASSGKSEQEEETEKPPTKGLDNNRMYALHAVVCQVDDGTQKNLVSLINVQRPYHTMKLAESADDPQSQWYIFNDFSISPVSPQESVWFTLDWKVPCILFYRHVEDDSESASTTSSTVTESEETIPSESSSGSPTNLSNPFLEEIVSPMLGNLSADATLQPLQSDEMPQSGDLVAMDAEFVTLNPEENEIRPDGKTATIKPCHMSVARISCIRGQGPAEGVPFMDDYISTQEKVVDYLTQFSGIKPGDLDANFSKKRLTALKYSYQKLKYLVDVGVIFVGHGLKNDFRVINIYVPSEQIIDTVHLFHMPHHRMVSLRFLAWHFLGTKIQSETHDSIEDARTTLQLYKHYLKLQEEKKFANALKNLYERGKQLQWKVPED

effect of a mutation on the interaction: disrupting interaction strength
Substance: PAN2-PAN3 deadenylation complex catalytic subunit PAN2 (Drosophila melanogaster (Fruit fly)), A1Z7K9 T97R;H102G
